Values quoted from earlier work as cited in PMC2888655.
Where two headings read alike, the source gives them in different places.

Tests used:
[1] = molecular target: IGF2 (Homo sapiens) (UniProt P01344); assay: SPR
[2] = molecular target: IGF1 (Homo sapiens) (UniProt P05019); assay: SPR
[3] = molecular target: IGF2 (Homo sapiens) (UniProt P01344)
[4] = molecular target: IGF1 (Homo sapiens) (UniProt P05019)

IGF1 (Homo sapiens), sequence (P05019 49-118): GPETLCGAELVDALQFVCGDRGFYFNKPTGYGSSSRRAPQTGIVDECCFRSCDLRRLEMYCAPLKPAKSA
IGF2 (Homo sapiens), sequence (P01344 25-91): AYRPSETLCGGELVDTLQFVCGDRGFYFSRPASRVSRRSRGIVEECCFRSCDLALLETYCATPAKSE
IGF1R (from UniProt P08069), sequence (P08069 31-736): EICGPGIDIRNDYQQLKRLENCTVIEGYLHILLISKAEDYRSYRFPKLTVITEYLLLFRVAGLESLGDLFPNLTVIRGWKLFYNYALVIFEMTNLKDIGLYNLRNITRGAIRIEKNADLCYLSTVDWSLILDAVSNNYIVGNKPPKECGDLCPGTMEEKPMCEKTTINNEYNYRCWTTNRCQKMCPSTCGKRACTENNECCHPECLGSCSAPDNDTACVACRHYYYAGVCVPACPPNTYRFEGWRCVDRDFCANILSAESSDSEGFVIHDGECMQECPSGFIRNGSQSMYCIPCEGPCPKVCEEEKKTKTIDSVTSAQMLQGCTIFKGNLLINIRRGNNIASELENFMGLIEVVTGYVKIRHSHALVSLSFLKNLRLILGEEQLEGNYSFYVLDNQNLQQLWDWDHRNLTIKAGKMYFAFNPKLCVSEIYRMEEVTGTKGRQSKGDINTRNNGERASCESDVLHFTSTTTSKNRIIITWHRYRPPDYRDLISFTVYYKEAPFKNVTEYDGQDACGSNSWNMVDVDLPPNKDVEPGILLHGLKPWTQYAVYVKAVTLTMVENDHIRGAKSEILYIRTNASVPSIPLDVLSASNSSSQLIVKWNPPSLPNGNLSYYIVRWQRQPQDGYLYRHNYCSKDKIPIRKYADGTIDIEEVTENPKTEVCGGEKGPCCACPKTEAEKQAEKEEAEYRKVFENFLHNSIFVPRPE
IGF1R (from UniProt P08069), sequence (P08069 741-935): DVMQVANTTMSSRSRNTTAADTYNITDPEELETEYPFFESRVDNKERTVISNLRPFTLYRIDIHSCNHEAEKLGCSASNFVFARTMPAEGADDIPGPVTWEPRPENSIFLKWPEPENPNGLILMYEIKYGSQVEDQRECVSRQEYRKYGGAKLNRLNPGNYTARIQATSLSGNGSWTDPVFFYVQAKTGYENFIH
IGF1R (from UniProt Q05688), sequence (Q05688 14-208): as the sequence (P08069 741-935) above, with D1E, V5I, A19V, A20L, G189T counted along it

Row | Substance | Kd [1] [nM] | Kd [2] [nM] | Kd [3] [nM] | Kd [4] [nM]
1 | IGF1R (from UniProt P08069) | 17.8 | 4.45 |  | 
2 | IGF1R (from UniProt Q05688) |  |  | 1 | 1
